From PMC5558740 come the findings set out here.

This experiment addresses CX3CR1 2-21 (UniProt P49238). The experiment is described as follows: affinity chromatography on CX3CR1 peptide-Sepharose, dot blot. Conditions: reference: Tau42 not phosphorylated; sites S396.

CX3CR1 2-21, sequence (P49238 whole entry, looked up, tested part not stated): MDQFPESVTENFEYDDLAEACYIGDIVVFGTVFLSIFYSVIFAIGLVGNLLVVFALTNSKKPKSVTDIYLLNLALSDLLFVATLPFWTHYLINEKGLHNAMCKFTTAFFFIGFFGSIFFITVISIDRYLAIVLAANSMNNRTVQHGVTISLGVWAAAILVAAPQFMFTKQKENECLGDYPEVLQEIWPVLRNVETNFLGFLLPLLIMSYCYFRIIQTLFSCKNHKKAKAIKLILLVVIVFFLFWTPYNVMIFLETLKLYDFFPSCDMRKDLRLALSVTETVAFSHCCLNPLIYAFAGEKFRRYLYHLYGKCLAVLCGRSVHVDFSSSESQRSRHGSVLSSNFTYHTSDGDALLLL

For “Tau (Tau42) (from UniProt P10636-8) Tau42 phosphorylated by GSK-3β”, the “other: elution fraction number” value is “weaker; reference 4”.
